For experiment [1], the target named is human MSLN on Oval-Citar-3-MSLN cells (human) (UniProt Q13421). Description: cell ELISA on fixed Oval-Citar-3-MSLN cells, HRP anti-human IgG Fc detection. Background: ELISA stands for enzyme-linked immunosorbent assay.
For experiment [2] the target is unchanged. Description: flow cytometry on fixed Oval-Citar-3-MSLN cells, FITC anti-human IgG Fc detection. (In flow cytometry, cells or beads pass a laser one at a time.)

human MSLN on Oval-Citar-3-MSLN cells (human), sequence (Q13421 other isoform, or with tags, fused parts or gaps limits assumed): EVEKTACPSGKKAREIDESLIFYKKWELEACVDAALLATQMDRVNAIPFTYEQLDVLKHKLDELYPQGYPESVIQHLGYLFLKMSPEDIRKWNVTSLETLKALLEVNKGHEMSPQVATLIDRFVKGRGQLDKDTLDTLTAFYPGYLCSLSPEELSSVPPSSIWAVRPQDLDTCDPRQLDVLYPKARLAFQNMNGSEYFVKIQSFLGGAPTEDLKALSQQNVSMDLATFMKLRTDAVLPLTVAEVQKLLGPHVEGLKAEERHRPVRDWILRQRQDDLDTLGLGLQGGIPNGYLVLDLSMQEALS

B1: RC88 antibody (antibody, human IgG1, kappa, V domains shown)
VH: EVQLVESGGGLVQPGGSLRLSCAASGFDFSRYWMSWVRQAPGKGLEWIGEINPDSSTIVYTPSLKDKFIISRDNAKNTLYLQMNSLRAEDTALYYCARRGSHYYGYRTGYFDVWGAGTTVTVSS
VL: DVVMTQSPAFLSVTPGEKVTMTCSASSSVSYMYWHQQKPDQAPKLLIYDTSNLASGVPVRFSGSGSGTDFTFTISRMEAEDAATYYCQQWSSYPPTFGGGTKVEIKR
What is called EC50 is the concentration needed to bring the measured effect to its halfway point. A lower EC50 goes with higher potency in that assay. For the molecule B1, the results for the 50% effective concentration (EC50) in experiment [1] and in experiment [2] were 0.011 µg/mL and 0.153 µg/mL, respectively.

B2: RC88-Py-MAA-Val-Cit-PAB-MMAE (antibody, human IgG1, kappa, V domains shown)
VH: EVQLVESGGGLVQPGGSLRLSCAASGFDFSRYWMSWVRQAPGKGLEWIGEINPDSSTIVYTPSLKDKFIISRDNAKNTLYLQMNSLRAEDTALYYCARRGSHYYGYRTGYFDVWGAGTTVTVSS
VL: DVVMTQSPAFLSVTPGEKVTMTCSASSSVSYMYWHQQKPDQAPKLLIYDTSNLASGVPVRFSGSGSGTDFTFTISRMEAEDAATYYCQQWSSYPPTFGGGTKVEIKR
modifications: Py-MAA-Val-Cit-PAB-MMAE linker-drug coupled to cysteine thiols of reduced disulfide bonds (bridging linker); positions not given; DAR 3.95
With B2, the EC50 in experiment [1] was found to be 0.0197 µg/mL; in experiment [2], 0.251 µg/mL.

(Values after patent US20220056147A1.)
